Patent publication US20230374130A1 (published 2023)

Molecular target: human CD3 epsilon (CD3ε) (human, UniProt P07766 23-207)
Experiment: binding kinetics

Chain of human CD3 epsilon (CD3ε) (P07766 23-207): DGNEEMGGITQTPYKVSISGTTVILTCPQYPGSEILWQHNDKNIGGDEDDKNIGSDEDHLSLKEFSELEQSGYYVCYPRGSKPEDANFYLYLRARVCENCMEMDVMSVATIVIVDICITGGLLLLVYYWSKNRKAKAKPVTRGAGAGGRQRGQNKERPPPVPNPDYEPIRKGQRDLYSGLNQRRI

Kd: 12 nM
B1: 160C9_T4h (bispecific antibody)
light: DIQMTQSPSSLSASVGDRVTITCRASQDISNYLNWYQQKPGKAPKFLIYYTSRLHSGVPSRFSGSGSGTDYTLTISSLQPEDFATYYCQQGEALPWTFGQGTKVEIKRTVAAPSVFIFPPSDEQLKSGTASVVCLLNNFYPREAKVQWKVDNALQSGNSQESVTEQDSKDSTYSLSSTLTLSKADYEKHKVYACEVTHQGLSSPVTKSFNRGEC
heavy 1: QVQLVQSGAEVKKPGASVKVSCKASGYKFTSYWIEWVRQAPGQGLEWIGEILPGSDTTNYNEKFKDRVTFTSDTSTSTVYMELSSLRSEDTAVYYCARDRGNYRAWFGYWGQGTLVTVSSASTKGPSVFPLAPSSKSTSGGTAALGCLVKDYFPEPVTVSWNSGALTSGVHTFPAVLQSSGLYSLSSVVTVPSSSLGTQTYICNVNHKPSNTKVDKKVEPKSCDKTHTCPPCPAPEAAGAPSVFLFPPKPKDTLMISRTPEVTCVVVDVSHEDPEVKFNWYVDGVEVHNAKTKPREEQYNSTYRVVSVLTVLHQDWLNGKEYKCKVSNKALPAPIEKTISKAKGQPREPQVYTLPPSRDELTKNQVSLSCAVKGFYPSDIAVEWESNGQPENNYKTTPPVLDSDGSFFLVSKLTVDKSRWQQGNVFSCSVMHEALHNHYTQKSLSLSPG
heavy 2: not shown
